Laboratory results: publication PMC5601474, “Radiation damage at the active site of human alanine:glyoxylate aminotransferase reveals that the cofactor position is finely tuned during catalysis” (Scientific Reports, 2017)
Substitutions are numbered along the chain they refer to. Names may count otherwise.

B1: human alanine:glyoxylate aminotransferase major allele, wild type (enzyme)
chain: MASHKLLVTPPKALLKPLSIPNQLLLGPGPSNLPPRIMAAGGLQMIGSMSKDMYQIMDEIKEGIQYVFQTRNPLTLVISGSGHCALEAALVNVLEPGDSFLVGANGIWGQRAVDIGERIGARVHPMTKDPGGHYTLQEVEEGLAQHKPVLLFLTHGESSTGVLQPLDGFGELCHRYKCLLLVDSVASLGGTPLYMDRQGIDILYSGSQKALNAPPGTSLISFSDKAKKKMYSRKTKPFSFYLDIKWLANFWGCDDQPRMYHHTIPVISLYSLRESLALIAEQGLENSWRQHREAAAYLHGRLQALGLQLFVKDPALRLPTVTTVAVPAGYDWRDIVSYVIDHFDIEIMGGLGPSTGKVLRIGLLGCNATRENVDRVTEALRAALQHCPKKKL
modifications: Lys-209 in Schiff base linkage with PLP (internal aldimine); the linkage is photoreduced and broken in the late dataset
notes: alanine:glyoxylate aminotransferase (AGT), human, major allele; also called AGT-Ma; AGT
B2: human alanine:glyoxylate aminotransferase major allele, pathogenic variant D183N (enzyme)
chain: B1 chain with D183N
modifications: Lys-209 in Schiff base linkage with PLP (internal aldimine)
notes: alanine:glyoxylate aminotransferase (AGT), human, major allele, with the pathogenic (primary hyperoxaluria type I) mutation D183N; also called AGT-Ma D183N; AGT-D183N

Tests used:
[1] = target: the molecule itself; assay: crystal structure; orthorhombic crystal P212121 of AGT-Ma holo, hanging drop, 21 °C, PEG 6K 12%, 0.1 M MES pH 5.0; 1.7 Å; 2 molecules (1 dimer) per asymmetric unit
[2] = target: the molecule itself; assay: crystal structure; crystal P212121 of AGT-Ma-D183N holo, sitting drop, 21 °C, PEG 10K 17%, 0.1 M Bis-Tris pH 5.5, 0.1 M ammonium acetate; 1.8 Å; eight molecules (4 dimers) per asymmetric unit

| Protein | binding result [1] | binding result [2] |
| --- | --- | --- |
| B1 | binds | – |
| B2 | – | binds |
